{"source": "paper PMC7239899", "system": "RpsA WT (Mycobacterium tuberculosis H37Rv)", "test": "MST", "details": "MST: PBS-T/MST buffer with 0.1% Tween 20, 15 min at room temperature, 50 nM RpsA, tmRNA dilution series from 4.1 uM; EMSA buffer not given in material", "data": [{"substance": "tmRNA", "values": [{"measurement": "Kd", "result": 58.1, "unit": "nM"}]}]}
